Test results from patent US20170029530A1 (AbbVie / Abbott, published 2017).
Where “and” joins values, the source holds several entries; their conditions need not be identical. Equal entries are not always repeated.

T1: mDPEP3 (limits assumed)
T1 construct: also called mouse DPEP3-His; mouse DPEP3 ECD with histidine tag
T1 single chain: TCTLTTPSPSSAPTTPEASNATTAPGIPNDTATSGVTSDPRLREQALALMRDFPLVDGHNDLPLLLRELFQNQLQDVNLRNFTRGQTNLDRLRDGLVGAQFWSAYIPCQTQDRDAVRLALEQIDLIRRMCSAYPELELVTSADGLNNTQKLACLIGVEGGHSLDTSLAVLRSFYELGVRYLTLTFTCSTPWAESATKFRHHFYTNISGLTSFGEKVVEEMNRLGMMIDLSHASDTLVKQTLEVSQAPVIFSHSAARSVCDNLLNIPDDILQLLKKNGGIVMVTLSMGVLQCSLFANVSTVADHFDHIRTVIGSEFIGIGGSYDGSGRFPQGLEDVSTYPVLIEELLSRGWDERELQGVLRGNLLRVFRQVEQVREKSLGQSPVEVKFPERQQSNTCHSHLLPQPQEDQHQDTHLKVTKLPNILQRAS

T2: cDPEP3 (Macaca fascicularis, UniProt Q4R7M2)
T2 construct: extracellular domain; also called cynomolgus DPEP3-His; cynomolgus DPEP3 ECD with histidine tag
T2 sequence (single chain, looked up): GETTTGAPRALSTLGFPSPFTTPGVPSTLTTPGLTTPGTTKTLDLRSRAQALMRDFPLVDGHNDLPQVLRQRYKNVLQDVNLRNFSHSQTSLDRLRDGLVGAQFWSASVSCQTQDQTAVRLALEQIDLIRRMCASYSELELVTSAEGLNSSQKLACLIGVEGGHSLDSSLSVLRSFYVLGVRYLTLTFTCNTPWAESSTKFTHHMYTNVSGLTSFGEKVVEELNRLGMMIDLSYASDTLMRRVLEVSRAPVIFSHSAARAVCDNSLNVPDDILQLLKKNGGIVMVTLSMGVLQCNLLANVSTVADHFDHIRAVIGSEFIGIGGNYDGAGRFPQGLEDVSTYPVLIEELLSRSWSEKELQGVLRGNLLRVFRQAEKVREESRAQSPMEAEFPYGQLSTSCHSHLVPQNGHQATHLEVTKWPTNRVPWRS

T3: rat DPEP3 ECD with histidine tag (rat, UniProt Q5U2X4 36-459, limits assumed)
T3 construct: also called rDPEP3-His; ratDPEP3-His; not shown: histidine tag
T3 sequence: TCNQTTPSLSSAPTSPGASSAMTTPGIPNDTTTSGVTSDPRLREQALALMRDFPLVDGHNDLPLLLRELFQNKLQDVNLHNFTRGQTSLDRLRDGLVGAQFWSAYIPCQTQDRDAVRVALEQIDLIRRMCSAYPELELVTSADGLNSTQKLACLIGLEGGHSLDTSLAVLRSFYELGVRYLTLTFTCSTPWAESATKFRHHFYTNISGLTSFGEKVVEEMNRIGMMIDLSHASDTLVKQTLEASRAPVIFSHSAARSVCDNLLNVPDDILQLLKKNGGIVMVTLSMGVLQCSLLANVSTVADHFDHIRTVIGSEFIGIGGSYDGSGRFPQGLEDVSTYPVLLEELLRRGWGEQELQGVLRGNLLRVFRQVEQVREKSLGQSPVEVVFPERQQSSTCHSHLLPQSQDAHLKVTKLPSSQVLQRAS

T4: hDPEP3-ECD-His (human, UniProt Q9H4B8 36-463)
T4 construct: also called hDPEP3-His; monomeric hDPEP3-His antigen; not shown: histidine tag
T4 sequence: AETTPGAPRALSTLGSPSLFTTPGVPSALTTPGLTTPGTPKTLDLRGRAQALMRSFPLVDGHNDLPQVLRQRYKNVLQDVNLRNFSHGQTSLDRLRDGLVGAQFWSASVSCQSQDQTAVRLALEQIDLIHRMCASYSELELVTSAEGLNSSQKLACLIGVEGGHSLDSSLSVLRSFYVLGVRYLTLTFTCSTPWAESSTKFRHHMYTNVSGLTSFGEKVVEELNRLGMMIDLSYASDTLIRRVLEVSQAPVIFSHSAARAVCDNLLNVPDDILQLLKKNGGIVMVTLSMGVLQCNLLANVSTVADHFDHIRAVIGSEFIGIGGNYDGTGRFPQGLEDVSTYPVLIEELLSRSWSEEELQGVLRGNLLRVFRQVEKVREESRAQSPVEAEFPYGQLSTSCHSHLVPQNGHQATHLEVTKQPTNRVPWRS

T5: hDPEP1-His (human, UniProt P16444 17-385, limits assumed)
T5 construct: Neither the origin nor the limits of this protein are described; not shown: histidine tag
T5 sequence (looked up): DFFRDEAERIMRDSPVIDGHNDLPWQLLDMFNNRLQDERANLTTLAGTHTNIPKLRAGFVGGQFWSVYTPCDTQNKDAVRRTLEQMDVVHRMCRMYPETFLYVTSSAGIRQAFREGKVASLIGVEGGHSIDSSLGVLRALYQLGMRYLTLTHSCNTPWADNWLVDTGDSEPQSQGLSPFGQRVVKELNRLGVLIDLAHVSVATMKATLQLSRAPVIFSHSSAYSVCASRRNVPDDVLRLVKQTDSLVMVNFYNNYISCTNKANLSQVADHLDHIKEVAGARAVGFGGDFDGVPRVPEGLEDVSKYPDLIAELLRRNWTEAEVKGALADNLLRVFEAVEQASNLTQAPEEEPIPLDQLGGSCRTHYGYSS

B1: SC34.40 (antibody, mouse IgG2a, V domains shown)
VH: EVQLQESGPGLAKPSQTLSLTCSVTGYSITSDYWNWIRKFPGNKLEYMGYITYSGSTYYNPSLKSRISITRDTSKNQYYLQLNSVTTEDTATYYCARARVYYYDGRYGRAMDYWGQGTSVTVSS
VL: DIQMTQSPASLSASVGETVTMTCRASENIYSNLAWYQQKQGKSPQVLVYAATNLADGVPSRFSGSESGTQFSLKINSLQPEDFGSYYCQHFYGTPWTFGGGTKLEIK
B2: SC34.41 (antibody, mouse IgG1, V domains shown)
VH: EVKLVESGGGLVKPGGSLKLSCAASGFTFTSYTMSWVRQTPAKRLEWVATISTGGGNTYYPDIVKGRFTISRDNARSTLYLQMSSLRSEDSAMYYCARRFYDGSYNYWYFDVWGAGTTVTVSS
VL: DIQMIQSPSSMFASLGDRVSLSCRASQGIRGNLDWYQQKPGGTIKLLIYSTSNLNSGVPSRFSGSGSGSDYSLTISSLESEDFADYYCLQRDAYPYTFGGGTKLEIK
B3: SC34.49 (antibody, mouse IgG1, V domains shown)
VH: EVQLQQSGPELVKPGSSVKISCKASGYTFTDYHMNWVKQSHGKSLEWIGNINPYYGVSTYNQNLKGTATLTVDKSSSTAYMELRGLTSEDSAVYYCVRRAMDSPRFAYWGQGTLVTVSA
VL: DIQMTQSSSYLSVSLGGRVTITCKASEHINNWLAWYQQKPGNPPRLLISGATSLETGVPSRFSGSGSGKDYTLSITGLQTEDIATYFCQQYRSTPFTFGSGTKLEIK
B4: SC34.50 (antibody, mouse IgG2b, V domains shown)
VH: QVQLQQPGAELVRPGASVKLSCKASGYTFTSYWINWVKQRPGQGLEWIGNIFPSDSYTNYNQKFRDKATLTVDKSSSTAYMQLSSPTSEDSAVYYCTIRTYGNYFDYWGQGTTLTVSS
VL: DIQMTQSSSSFSVSLGDRVTITCKASEDIYNRLAWYQQKPGNAPRLLISGATSLETGVPSRFSGSGSGKDYTLSITSLQTEDVATYYCQQYWSTIFTFGSGTKLEIK
B5: SC34.61 (antibody, mouse IgG1, V domains shown)
VH: B2 VH
VL: B2 VL
B6: hSC34.2 humanized anti-DPEP3 antibody (antibody, human IgG1, kappa, V domains shown)
VH: EVQLVQSGAEVKKPGESLKISCKGSGYSFTDYYINWVRQMPGKGLEWMGWTYPGSGPTKYNGKFRGQVTISADKSISTAYLQWSSLKASDTAMYYCARRGIYYYDGIYPNYFDYWGQGTTVTVSS
VL: DIQMTQSPSSLSASVGDRVTITCSASQGITNYLNWYQQKPGKAPKLLIYYTSRLHSGVPSRFSGSGSGTDFTLTISSLQPEDFATYYCQQYSKLPWTFGQGTKVEIKR
notes: Human IgG1/kappa
B7: hSC34.25 humanized anti-DPEP3 antibody (antibody, human IgG1, kappa, V domains shown)
VH: QVQLVQSGAEVKKPGASVKVSCKASGYTFTSYAISWVRQAPGQRLEWMGEIYPGSGETYYNEKFKGRVTITRDTSASTAYMELSSLRSEDTAVYYCARVNDYGSWFPYWGQGTLVTVSS
VL: DIVMTQSPDSLAVSLGERATINCKSSQSLLYSRYQKNYVAWYQQKPGQPPKLLIYWASTRESGVPDRFSGSGSGTDFTLTISSLQAEDVAVYYCQQYYRYPLTFGQGTKLEIKR
notes: Human IgG1/kappa
B8: hSC34.28 humanized anti-DPEP3 antibody (antibody, human IgG1, kappa, V domains shown)
VH: QVQLVQSGAEVKKPGSSVKVSCKASGGTFSSYWIEWVRQAPGQGLEWMGEILPGSGNTYYNERFKDRVTITADESTSTAYMELSSLRSEDTAVYYCARRAAAYYSNPEWFAYWGQGTLVTVSS
VL: EIVLTQSPATLSLSPGERATLSCTASSSVNSFYLHWYQQKPGLAPRLLIYSTSNLASGIPDRFSGSGSGTDFTLTISRLEPEDFAVYYCHQYHRSPYTFGQGTKLEIKR
notes: Human IgG1/kappa
B9: hSC34.38 humanized anti-DPEP3 antibody (antibody, human IgG1, kappa, V domains shown)
VH: EVQLVQSGAEVKKPGESLKISCKGSGYSFTSYYMYWVRQMPGKGLEWMGEINPSNGGANFNERFKNQVTISADKSISTAYLQWSSLKASDTAMYYCTRGLLYYDYDRGFAYWGQGTLVTVSS
VL: DVVMTQSPLSLPVTLGQPASISCKSSQSLLYSNRRTYLNWFQQRPGQSPRRLIYLVSKLDSGVPDRFSGSGSGTDFTLKISRVEAEDVGVYYCVQGTHFPFTFGQGTKLEIKR
notes: Human IgG1/kappa
B10: hSC34.87 humanized anti-DPEP3 antibody (antibody, human IgG1, kappa, V domains shown)
VH: QVQLVQSGAEVKKPGASVKVSCKASGYTFTSYWMLWVRQAPGQRLEWMGYIDPRNGYTEYNQKFKDRVTITRDTSASTAYMELSSLRSEDTAVYYCARGGNVAMDYWGQGTLVTVSS
VL: DIVMTQSPDSLAVSLGERATINCKSSQSLLNSRTRKNYLAWYQQKPGQPPKLLIYWASTRESGVPDRFSGSGSGTDFTLTISSLQAEDVAVYYCKQSYNLWTFGGGTKLEIKR
notes: Human IgG1/kappa

Tests used:
mDPEP3 = molecular target: T1, mDPEP3; test: ELISA, coated antigen
[1] = molecular target: T6, hDPEP2 ECD with histidine tag (human, UniProt Q9H4A9 33-463); test: ELISA, coated antigen
T6 construct: also called hDPEP2-His; not shown: histidine tag
T6 sequence (Q9H4A9 33-463): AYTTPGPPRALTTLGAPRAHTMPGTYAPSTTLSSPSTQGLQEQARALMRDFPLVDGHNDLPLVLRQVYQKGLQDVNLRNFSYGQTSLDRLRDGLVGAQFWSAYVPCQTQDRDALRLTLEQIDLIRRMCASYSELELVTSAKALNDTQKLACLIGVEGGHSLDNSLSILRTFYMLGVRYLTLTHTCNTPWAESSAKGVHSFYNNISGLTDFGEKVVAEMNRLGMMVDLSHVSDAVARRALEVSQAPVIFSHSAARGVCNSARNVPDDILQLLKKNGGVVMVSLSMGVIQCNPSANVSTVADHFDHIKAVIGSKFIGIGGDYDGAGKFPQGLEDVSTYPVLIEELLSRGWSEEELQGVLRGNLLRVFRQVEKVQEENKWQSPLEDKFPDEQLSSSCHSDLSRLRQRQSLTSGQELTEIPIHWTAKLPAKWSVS

cDPEP3 = molecular target: T2, cDPEP3; test: ELISA, coated antigen
[2] = molecular target: T3, rat DPEP3 ECD with histidine tag; test: ELISA, coated antigen
hDPEP3-ECD-His = molecular target: T4, hDPEP3-ECD-His; test: BLI ForteBio RED, 200 nM hDPEP3-His, estimated grade
Procedure, shortened: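 Antibodies were captured on anti-mouse Fc biosensors to 0.3-1 units, then exposed to hDPEP3-His for a 4 min association and a 3 min dissociation at 1000 rpm. A control mouse IgG response was subtracted, and KD was estimated qualitatively from the curves. Sensors were regenerated with 10 mM glycine, pH 1.7.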

hDPEP1-His = molecular target: T5, hDPEP1-His; test: SPR, BIAcore 2000, antibody captured with anti-human capture kit
[3] = molecular target: T3, rat DPEP3 ECD with histidine tag; test: as above

| Binder | binding result (mDPEP3) | binding result [1] | binding result (cDPEP3) | binding result [2] | Kd (hDPEP3-ECD-His) | binding result (hDPEP1-His) | binding result [3] |
| --- | --- | --- | --- | --- | --- | --- | --- |
| B1 | no binding (tested: 1 ug/mL) | no binding (tested: 1 ug/mL) | no binding (tested: 1 ug/mL) | no binding (tested: 1 ug/mL) | ≥ 5 nM and ≤ 10 nM | – | – |
| B2 | no binding (tested: 1 ug/mL) | no binding (tested: 1 ug/mL) | no binding (tested: 1 ug/mL) | no binding (tested: 1 ug/mL) | > 10 nM | – | – |
| B3 | no binding (tested: 1 ug/mL) | no binding (tested: 1 ug/mL) | no binding (tested: 1 ug/mL) | no binding (tested: 1 ug/mL) | > 10 nM | – | – |
| B4 | no binding (tested: 1 ug/mL) | no binding (tested: 1 ug/mL) | no binding (tested: 1 ug/mL) | no binding (tested: 1 ug/mL) | > 10 nM | – | – |
| B5 | no binding (tested: 1 ug/mL) | no binding (tested: 1 ug/mL) | no binding (tested: 1 ug/mL) | no binding (tested: 1 ug/mL) | > 10 nM | – | – |
| B6 | – | – | – | – | – | no binding | no binding |
| B7 | – | – | – | – | – | no binding | no binding |
| B8 | – | – | – | – | – | no binding | no binding |
| B9 | – | – | – | – | – | no binding | no binding |
| B10 | – | – | – | – | – | no binding | no binding |
